Assay results reported in patent US20260250420A1 (SICHUAN KELUN BIOTECH BIOPHARMACEUTICAL, published 2026).

T1: monkey PTK7 protein (extracellular sequence of monkey PTK7 with C-terminal 6×His tag) (monkey)
T1 chain: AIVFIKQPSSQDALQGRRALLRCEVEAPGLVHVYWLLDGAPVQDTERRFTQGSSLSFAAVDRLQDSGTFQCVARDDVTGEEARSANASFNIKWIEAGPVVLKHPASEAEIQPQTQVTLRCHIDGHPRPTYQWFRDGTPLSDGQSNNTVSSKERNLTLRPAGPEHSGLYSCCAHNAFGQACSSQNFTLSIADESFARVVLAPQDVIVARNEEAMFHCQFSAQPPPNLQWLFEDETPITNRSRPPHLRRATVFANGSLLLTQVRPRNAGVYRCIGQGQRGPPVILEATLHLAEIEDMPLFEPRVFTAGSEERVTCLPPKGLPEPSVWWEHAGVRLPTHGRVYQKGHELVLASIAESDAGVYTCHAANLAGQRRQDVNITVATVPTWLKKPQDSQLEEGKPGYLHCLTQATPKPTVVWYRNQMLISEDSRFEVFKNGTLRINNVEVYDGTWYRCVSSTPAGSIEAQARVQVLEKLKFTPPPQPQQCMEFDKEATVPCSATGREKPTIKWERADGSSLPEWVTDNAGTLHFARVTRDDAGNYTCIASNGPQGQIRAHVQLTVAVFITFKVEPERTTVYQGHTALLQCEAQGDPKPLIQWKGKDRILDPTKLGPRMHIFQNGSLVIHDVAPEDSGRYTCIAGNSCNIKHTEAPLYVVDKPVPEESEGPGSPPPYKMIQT

T2: human PTK7 protein (extracellular sequence of human PTK7 with C-terminal 6×His tag) (human, UniProt Q13308 31-704)
T2 construct: extracellular domain; Expressed transiently in HEK293 cells; also called human PTK7-His; human PTK7-His protein
T2 sequence: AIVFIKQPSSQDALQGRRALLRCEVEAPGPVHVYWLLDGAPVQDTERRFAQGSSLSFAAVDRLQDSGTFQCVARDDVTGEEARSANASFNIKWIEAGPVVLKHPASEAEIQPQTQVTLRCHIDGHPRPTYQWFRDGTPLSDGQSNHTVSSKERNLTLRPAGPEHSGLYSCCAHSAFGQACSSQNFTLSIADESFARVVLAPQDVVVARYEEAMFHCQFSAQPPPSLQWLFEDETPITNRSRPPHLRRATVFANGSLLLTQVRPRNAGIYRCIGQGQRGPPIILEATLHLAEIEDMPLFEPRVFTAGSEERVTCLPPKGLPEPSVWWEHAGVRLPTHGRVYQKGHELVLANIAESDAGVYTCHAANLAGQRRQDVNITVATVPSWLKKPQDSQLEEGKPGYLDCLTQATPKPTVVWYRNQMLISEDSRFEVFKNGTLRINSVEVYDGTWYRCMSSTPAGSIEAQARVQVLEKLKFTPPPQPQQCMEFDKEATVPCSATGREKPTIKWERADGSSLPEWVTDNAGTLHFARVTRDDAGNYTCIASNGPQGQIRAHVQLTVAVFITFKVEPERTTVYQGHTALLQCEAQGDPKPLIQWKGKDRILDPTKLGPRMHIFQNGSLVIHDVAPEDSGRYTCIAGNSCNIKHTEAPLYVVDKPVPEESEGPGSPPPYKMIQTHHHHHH

T3: mouse PTK7 protein (extracellular sequence of mouse PTK7 with C-terminal 6×His tag) (mouse, UniProt Q8BKG3 23-696)
T3 construct: extracellular domain; Expressed transiently in HEK293 cells
T3 sequence: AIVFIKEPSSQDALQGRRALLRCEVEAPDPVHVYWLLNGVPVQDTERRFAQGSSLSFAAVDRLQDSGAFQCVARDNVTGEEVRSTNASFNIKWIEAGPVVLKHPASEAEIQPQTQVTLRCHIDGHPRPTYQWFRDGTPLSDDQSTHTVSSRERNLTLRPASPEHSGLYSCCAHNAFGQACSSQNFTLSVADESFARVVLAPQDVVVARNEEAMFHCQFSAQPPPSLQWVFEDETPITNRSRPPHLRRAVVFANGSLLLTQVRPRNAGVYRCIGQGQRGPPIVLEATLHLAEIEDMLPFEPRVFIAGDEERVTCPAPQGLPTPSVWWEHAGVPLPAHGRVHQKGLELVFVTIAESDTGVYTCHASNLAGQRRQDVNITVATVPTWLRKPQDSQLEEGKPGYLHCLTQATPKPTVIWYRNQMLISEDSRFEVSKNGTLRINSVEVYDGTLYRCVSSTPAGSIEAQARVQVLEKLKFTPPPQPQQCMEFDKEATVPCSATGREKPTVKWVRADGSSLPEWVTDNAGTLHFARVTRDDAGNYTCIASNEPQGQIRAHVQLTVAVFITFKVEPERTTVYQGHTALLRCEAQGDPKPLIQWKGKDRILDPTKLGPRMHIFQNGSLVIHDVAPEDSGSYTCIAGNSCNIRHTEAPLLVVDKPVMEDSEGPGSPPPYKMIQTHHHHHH


Assays:
[1] = target: T1, monkey PTK7 protein (extracellular …); assay: ELISA, coated monkey PTK7 protein 1 µg/ml
Experimental: Original data was imported into software for nonlinear curve fitting, and EC₅₀ of binding of each antibody to human PTK7 and monkey PTK7 was calculated, respectively. As shown in Table 1 and FIGS. 1A-1B, the screened antibodies could be bound to the human and monkey PTK7 proteins with affinity higher than that of the control antibody Hu24.

[2] = target: T2, human PTK7 protein (extracellular …); assay: competition ELISA on coated human PTK7 protein; competitor: biotin-labelled 101A6HZ at a fixed concentration
Experimental: The human PTK7 protein was diluted to reach 1 μg/ml by using the CBS coating liquid, coated by a 96-well microtiter plate at a density of 100 μl/well, and stood overnight at 4° C.; and after the plate was washed and blocked, the biotin-labeled antibody and the to-be-detected antibody were added, and incubated for 2 h at room temperature. After the plate was washed, the secondary antibody was added for incubation, and finally was subjected to color development, then the reaction was terminated, and the absorbance at OD₄₅₀ nm was read by the microplate reader. The original data was imported into software for nonlinear curve fitting (four parameters).

[3] = target: T3, mouse PTK7 protein (extracellular …); assay: BLI (ForteBio), antibody on Protein A sensor
Source text: The dynamic affinity of the control Hu24 and candidate antibodies 64A10HZ, 101A6HZ, 4E12HZ and 19C2HZ with human PTK7-His was detected by using ForteBio (Pall life sciences).
ELISA and ForteBio were adopted to detect binding of the anti-human PTK7 chimeric and humanized antibodies to the monkey, mouse and rat PTK7 proteins.

| EC50 [1] [µg/mL] | IC50 (read off the curve) [2] [µg/mL] | binding result [3] | Binder |
| --- | --- | --- | --- |
| 0.0133 | – | – | Hu24 (PTK7 control antibody, taken from Hu24 in the Patent CN201580030255) (antibody) chain 1: QVQLVQSGPEVKKPGASVKVSCKASGYTFTDYAVHWVRQAPGKRLEWIGVISTYNDYTYNNQDFKGRVTMTRDTSASTAYMELSRLRSEDTAVYYCARGNSYFYALDYWGQGTSVTVSS chain 2: EIVLTQSPATLSLSPGERATLSCRASESVDSYGKSFMHWYQQKPGQAPRLLIYRASNLESGIPARFSGSGSGTDFTLTISSLEPEDFAVYYCQQSNEDPWTFGGGTKLEIK |
| – | ~0.08 | no binding | 101A6HZ (anti-human PTK7 humanized antibody) (antibody, human IgG1, kappa) heavy: not shown light: DIVMTQSPDSLAVSLGERATINCKASQDVGSAVIWYQQKPGQSPKLLIYWASTRHTGVPDRFSGSGSGTDFTLTISSLQAEDVAVYYCQQYSSYPLTFGQGTKLEIKRTVAAPSVFIFPPSDEQLKSGTASVVCLLNNFYPREAKVQWKVDNALQSGNSQESVTEQDSKDSTYSLSSTLTLSKADYEKHKVYACEVTHQGLSSPVTKSFNRGEC |
